Data from paper PMC4972253.

Key:
[1] = target: JRFL NFL trimer (Wt, unfixed) (HIV-1, subtype B, strain JRFL); test: native gel or EMSA
[2] = target: BG505 NFL trimer (Wt, unfixed) (HIV-1, subtype A, strain BG505); test: native gel or EMSA
VRC01 (human) = test: BLI
VRC01 (human), sequence (light, as listed by the source, chain 2 of 2, other chains not shown): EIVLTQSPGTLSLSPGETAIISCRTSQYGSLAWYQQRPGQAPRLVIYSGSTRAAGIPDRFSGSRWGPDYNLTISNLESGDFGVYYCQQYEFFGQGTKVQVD

Row | Substance | stoichiometry N [1] | stoichiometry N [2] | relative binding (% of the day 0 response) after 7 days at 37°C in PBS (VRC01 (human))
1 | JRFL NFL trimer (Wt, unfixed) (domain or fragment) | 3 | – | –
2 | BG505 NFL trimer (Wt, unfixed) (domain or fragment) | – | 3 | 90%
